Experimental data as given in the supplement of paper PMC7125110.
± gives the standard error. For some of these results: Fewer inactive variants are shown than the library holds.

B1: glmS ribozyme (parent)
chain: AUAAAAGCGCCAGAACUACAGAAAUGUAGUUGACGAGGAGGAGGUUUAUCGAAUUUUCGGCGGAUGCCUCCAAA

Tests used:
Settings in all cases: with glucosamine-6-phosphate
glucosamine-6-phosphate [1] = variants of: B1; assay: kcat; higher = faster cleavage; RNA array
Outline: (§1)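 Barcoded ribozyme variants on sequenced MiSeq chips were transcribed in situ by E. coli RNA polymerase and followed at 37 °C through a hybridised Cy3 probe. Glucosamine-6-phosphate at 40 μM to 10 mM in HEPES/KCl/Mg(OAc)2 buffer was flowed in, and tiles were imaged over ~14 h. Signals were normalised to baseline and to non-cleaving reference variants, and per-tile medians were fit to one- or two-exponential decays to give kobs. Weighted Michaelis–Menten fits across concentrations gave kcat and KM.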

glucosamine-6-phosphate [2] = variants of: B1; assay: KM; higher = weaker cofactor use; RNA array
Outline: as §1

glucosamine-6-phosphate [3] = variants of: B1; assay: self-cleavage kobs at 40 uM GlcN6P; higher = faster cleavage; RNA array
Outline: as §1

glucosamine-6-phosphate [4] = variants of: B1; assay: self-cleavage kobs at 160 uM GlcN6P; higher = faster cleavage; RNA array
Outline: as §1

glucosamine-6-phosphate [5] = variants of: B1; assay: self-cleavage kobs at 640 uM GlcN6P; higher = faster cleavage; RNA array
Outline: as §1

glucosamine-6-phosphate [6] = variants of: B1; assay: self-cleavage kobs at 2500 uM GlcN6P; higher = faster cleavage; RNA array
Outline: as §1

glucosamine-6-phosphate [7] = variants of: B1; assay: self-cleavage kobs at 10000 uM GlcN6P; higher = faster cleavage; RNA array
Outline: as §1

Variant	kcat (glucosamine-6-phosphate [1])	KM (glucosamine-6-phosphate [2])	self-cleavage kobs at 40 uM GlcN6P (glucosamine-6-phosphate [3])	self-cleavage kobs at 160 uM GlcN6P (glucosamine-6-phosphate [4])	self-cleavage kobs at 640 uM GlcN6P (glucosamine-6-phosphate [5])	self-cleavage kobs at 2500 uM GlcN6P (glucosamine-6-phosphate [6])	self-cleavage kobs at 10000 uM GlcN6P (glucosamine-6-phosphate [7])
AUAAAAGCGCCUGAACUACAGAAAUGUAGUUGACGAUGAGGAGGUUUAUCGAAUUUUCGGCGGAUGCCUCCAAA [A12U G37U]	3.51e-05 ± 1.1e-05 s⁻¹	–	–	–	–	–	–
AUAAAAGCGCCUGAACUACAGAAAUGUAGUUGACGAGGAGGAGGUUUAUCGAAUCUUCGGCGGAUGCCUCCAAA [A12U U55C]	0.0176 ± 0.0056 s⁻¹	464 ± 200 µM	0.0016 ± 0.00016 s⁻¹	0.00304 ± 0.00062 s⁻¹	0.0204 ± 0.0053 s⁻¹	0.0186 ± 0.0045 s⁻¹	0.0162 ± 0.0029 s⁻¹
AUAAAAGCGCCUGAACUACAGAAAUGUAGUUGACGAGGAGGAGGUGUAUCGAAUUUUCGGCGGAUGCCUCCAAA [A12U U46G]	0.023 ± 0.007 s⁻¹	2700 ± 1100 µM	0.000297 ± 7.2e-05 s⁻¹	–	0.00656 ± 0.0018 s⁻¹	0.0119 ± 0.0035 s⁻¹	0.0167 ± 0.0047 s⁻¹
AUAAAAGCGCCUGAACUACAGAAAUGUAGUUGACGAGGAGGAUGUUUAUCGAAUUUUCGGCGGAUGCCUCCAAA [A12U G43U]	0.000148 ± 3e-05 s⁻¹	–	–	–	2.86e-05 ± 1.1e-05 s⁻¹	0.000134 ± 2.2e-05 s⁻¹	0.00012 ± 1.2e-05 s⁻¹
AUAAAAGCGCCUGAACUACAGAAAUGUAGUUGACGAGGAGGAGGUUUUUCGAAUUUUCGGCGGAUGCCUACAAA [A12U A48U C70A]	5.26e-05 ± 1.7e-05 s⁻¹	–	–	–	–	6.36e-05 ± 2e-05 s⁻¹	4.16e-05 ± 1.5e-05 s⁻¹
AUAAAAGCGCCUGAACUACAGAAAUGUAGUUGACGAGGAGGAGGUUUAUCGAAUUUUCGGCGGAUGGGUCCAAA [A12U C67G C68G]	4.76e-05 ± 1.4e-05 s⁻¹	–	–	7.57e-05 ± 3.2e-05 s⁻¹	6.79e-05 ± 1.9e-05 s⁻¹	4.47e-05 ± 1.5e-05 s⁻¹	–
AUAAAAGCGCCUGAAGUACAGAAAUGUAGUUGACGAGGACGAGGUUUAUCGAAUUUUCGGCGGAUGCCUCCAAA [A12U C16G G40C]	0.000662 ± 7.1e-05 s⁻¹	3490 ± 700 µM	–	–	9.91e-05 ± 3.2e-05 s⁻¹	0.000322 ± 0.00011 s⁻¹	0.000481 ± 9.8e-05 s⁻¹
AUAAAAGCGCCUGAACUACAGAAAUGUAGUUGACGAGGAGGAGGUUUAUCGAAUUUUGGGCGGAUGCCUCCAAA [A12U C58G]	0.0011 ± 0.00023 s⁻¹	6470 ± 2000 µM	–	2.07e-05 ± 6e-06 s⁻¹	0.000109 ± 1.2e-05 s⁻¹	0.000287 ± 3e-05 s⁻¹	0.000677 ± 6.4e-05 s⁻¹
AUAAAAGCGCCUGAACUACAGAAAUGUAGUUGACGAGGAGGAGGUUUAUCGAAUUUUUGGCGGAUGCCUCCAAA [A12U C58U]	7.97e-05 ± 5.4e-06 s⁻¹	662 ± 220 µM	< 1e-05 s⁻¹	–	4.45e-05 ± 1.4e-05 s⁻¹	5.86e-05 ± 9.3e-06 s⁻¹	7.81e-05 ± 1.1e-05 s⁻¹
AUAAAAGCGCCUGAACUACAGAAAUGUAGUUGACGAGGAGGAGGUUUAUCGAAUUUUCUGCGGAUGCCUCCAAA [A12U G59U]	1.03e-05 ± 1e-06 s⁻¹	–	–	–	–	–	–
AUAAAAGCGCCUGAACUACAGAAAUGUAGGUGACGAGGAGGAGGUUUAUCGAAUUUUCGGCGGAUGCCUCCAAA [A12U U30G]	0.0227 ± 0.0046 s⁻¹	983 ± 280 µM	0.000931 ± 0.00012 s⁻¹	–	0.00794 ± 0.0013 s⁻¹	0.0279 ± 0.0091 s⁻¹	0.0211 ± 0.0039 s⁻¹
AUAAAAGCGCCUGAACUACAGAAAUGUAGAUGACGAGGAGGAGGUUUAUCGAAUUUUCGGCGGAUGCCUCCAAA [A12U U30A]	0.0401 ± 0.009 s⁻¹	1980 ± 540 µM	0.000782 ± 0.00011 s⁻¹	–	0.0124 ± 0.0029 s⁻¹	–	0.0321 ± 0.007 s⁻¹
AUAAAAGCGCCUGAACUACAGAAAUGUAGUUGACGAGGAGGAGGUUUAUCGAAUUUUCGGUGGAUGCCUCCAAA [A12U C61U]	2.71e-05 ± 7.4e-06 s⁻¹	–	–	–	–	3.1e-05 ± 1.2e-05 s⁻¹	–
AUAAAAGCGCCUGAACUACAGAAAUGUAGUUGACGAGGAGGAGGUUUAUCGAAUUUUCGGCGGAUGGCUCCAAA [A12U C67G]	0.00362 ± 0.00062 s⁻¹	791 ± 210 µM	0.00019 ± 2.1e-05 s⁻¹	0.000542 ± 0.00011 s⁻¹	0.0015 ± 0.00029 s⁻¹	0.00226 ± 0.00035 s⁻¹	0.00426 ± 0.00054 s⁻¹
AUAAAAGCGCCUGAACUACAGAAAUGUAGUUGACGAGGAAGAGGUUUAUCGAAUUUUCGGCGGAUGCCUCUAAA [A12U G40A C71U]	0.101 ± 0.05 s⁻¹	–	0.00209 ± 0.0003 s⁻¹	–	0.0194 ± 0.007 s⁻¹	–	0.116 ± 0.047 s⁻¹
AUAAAAGCGCCUGAACUACAGAAAUGUAGUUGACGAGGAGGAGGUUUAUCGCUUUUUCGGCGGAUGCCUGCAAA [A12U A52C A53U C70G]	1.09e-05 ± 3.5e-06 s⁻¹	–	–	–	–	–	–
AUAAAAGCGCCUGAACUACAGAAAUGUAGUUGACGAGGAGUAGGUUUAUCGAAUUUUCGGCGGAUGCCUCCAAA [A12U G41U]	0.0013 ± 0.00058 s⁻¹	–	0.000239 ± 2.1e-05 s⁻¹	0.00041 ± 5.1e-05 s⁻¹	0.000814 ± 8.1e-05 s⁻¹	0.00212 ± 0.00022 s⁻¹	–
AUAAAAGCGCCUGAACUACAGAAAUGUAGUUGACGAGGAGGUGGUUUAUCGAAUUUUCGGCGGAUGCCUCCAAA [A12U A42U]	0.000531 ± 7.4e-05 s⁻¹	1240 ± 330 µM	–	5.09e-05 ± 7.4e-06 s⁻¹	0.000198 ± 1.9e-05 s⁻¹	0.000402 ± 3.2e-05 s⁻¹	0.000411 ± 4.6e-05 s⁻¹
